Assay results published in patent publication US7067619B2, “Integrin-binding peptides” (La Jolla Cancer Research Foundation, priority 1993, dated 2006).
Bridge positions count the residues as written; N and C are the ends. Ends that are not written are not given here.

Experiments:
[1] = Precipitation behaviour of the peptide in solution; assay type: physicochemical; details: neutral pH
αvβ3 integrin = αvβ3 integrin (Homo sapiens, UniProt P05106+P06756); experiment: Panning and binding of peptide-displaying phage on αvβ3 integrin; parameters: The αvβ3, αvβ5 and α5β1 integrins were isolated from human placental extracts; from tissue; host or cells: human placenta; details: phage-displayed sequence
Source text: (§1) In addition, most of the phage-binding activity in the αvβ3 preparation was captured into microliter wells coated with antibodies against the αv or β3 subunits as described previously (Koivunen et al., J. Biol. Chem., 268:20205–10 (1993). The αIIbβ3 integrin was isolated from outdated platelets (Pytela et al., Science, 231:1559–1562 (1986)).
Peptide libraries were constructed in fuse 5 vector (Scott and Smith, Science 249:386–390 (1990)) as described previously (Koivunen et al., J. Cell Biol., 124:373–380 (1994). The CX5C, CX6C, CX7C and CX9 [SEQ ID NOs:39–42, respectively] libraries were prepared using synthetic oligonucleotides containing core sequences TGT(NNK)5TGT, TGT(NNK)6TGT, TGT(NNK)7TGT and TGT(NNK)9 [SEQ ID NOS:43–46, respectively] (N=equal molar mixture of A, C, G, T; K=G or T), respectively. The oligonucleotides were made double-stranded by PCR amplification with 5 cycles, purified and ligated to the N-terminus of pIII gene of fuse 5 vector. […]
(§2) Binding of individual cloned phage to integrins was studied in microliter wells as described in Koivunen et al., J. Cell. […] Phage that were bound were determined by their ability to infect F-pilus positive K91kan bacteria. Bacteria were grown overnight in microliter wells in the presence of tetracycline and the absorbance indicative of bacterial growth was read at 600 nm with an ELISA plate reader.

αvβ1 integrin = experiment: Attachment of αvβ1-expressing B2/v7 cells to immobilized […] peptide; assay type: cell-based
Source text: Cell lines expressing fibronectin-binding integrins were used to determine peptide activities against these integrins in the cell attachment assay described by Ruoslahti et al., Meth. Enzymol., 144:803–831 (1982), which is incorporated herein by reference. Human plasma fibronectin was iodinated as described by Morla and Ruoslahti, J. Cell Biol., 118:421–429 (1992), which is incorporated herein by reference. Vitronectin was obtained from Telios Pharmaceuticals (San Diego, Calif.). […] Peptide was coated on plastic by incubating at 37° C. for 2 hours in phosphate buffered saline containing 0.25% glutaraldehyde to crosslink the peptide. Free binding sites on the plastic were blocked using BSA. Approximately 1×10^5 cells per well were allowed to attach for 1 hour in the presence or absence of competing peptides. Bound cells were quantitated by staining with 0.1% amido black.
In addition to the inhibition of cell attachment to natural ligands, attachment and inhibition assays were performed using the […] [SEQ ID NO:6] peptide as substrate. The microliter well were coated with […] [SEQ ID NO:6] using glutaraldehyde as described above. […] Bound cells were quantitated by staining with 0.1% amido black.

α5β1 integrin = target: T1, α5β1 integrin (Homo sapiens, UniProt P05556+P08648); experiment: Panning and binding of peptide-displaying phage on α5β1 integrin; details: phage-displayed sequence
T1 construct: The αvβ3, αvβ5 and α5β1 integrins were isolated from human placental extracts; from tissue; host or cells: human placenta
Source text: as §1
Peptide libraries were constructed in fuse 5 vector (Scott and Smith, Science 249:386–390 (1990)) as described previously (Koivunen et al., J. Cell Biol., 124:373–380 (1994). The CX5C, CX6C, CX7C and CX9 [SEQ ID NOs:39–42, respectively] libraries were prepared using synthetic oligonucleotides containing core sequences TGT(NNK)5TGT, TGT(NNK)6TGT, TGT(NNK)7TGT and TGT(NNK)9 [SEQ ID NOS:43–46, respectively] (N=equal molar mixture of A, C, G, T; K=G or T), respectively. The oligonucleotides were made double-stranded by PCR amplification with 5 cycles, purified and ligated to the N-terminus of pIII gene of fuse 5 vector. The CX5C, CX6C, CX7C and CX9 [SEQ ID NOS:39–42, respectively] vectors were transfected into MC1061 cells using 16, 60, 263 and 250 electroporations, respectively. Bacteria were cultured for 24 hours in the presence of 20 μg/ml of tetracycline, and phage were collected from the supernatant by precipitation twice with polyethylene glycol. The phage pellets were dissolved at approximately 10^13 transducing units (TU)/ml in TBS buffer containing 0.02% NaN3 and stored at 4° C. The yields of the CX5C, CX6C, CX7C and CX9 [SEQ ID NOS:39–42, respectively] primary libraries were 3.5×10^8, 1.1×10^9, 4.5×10^5 and 3.5×10^8 clones, respectively. […]
as §2

αvβ3 integrin, sequence (P06756 31-889 limits assumed): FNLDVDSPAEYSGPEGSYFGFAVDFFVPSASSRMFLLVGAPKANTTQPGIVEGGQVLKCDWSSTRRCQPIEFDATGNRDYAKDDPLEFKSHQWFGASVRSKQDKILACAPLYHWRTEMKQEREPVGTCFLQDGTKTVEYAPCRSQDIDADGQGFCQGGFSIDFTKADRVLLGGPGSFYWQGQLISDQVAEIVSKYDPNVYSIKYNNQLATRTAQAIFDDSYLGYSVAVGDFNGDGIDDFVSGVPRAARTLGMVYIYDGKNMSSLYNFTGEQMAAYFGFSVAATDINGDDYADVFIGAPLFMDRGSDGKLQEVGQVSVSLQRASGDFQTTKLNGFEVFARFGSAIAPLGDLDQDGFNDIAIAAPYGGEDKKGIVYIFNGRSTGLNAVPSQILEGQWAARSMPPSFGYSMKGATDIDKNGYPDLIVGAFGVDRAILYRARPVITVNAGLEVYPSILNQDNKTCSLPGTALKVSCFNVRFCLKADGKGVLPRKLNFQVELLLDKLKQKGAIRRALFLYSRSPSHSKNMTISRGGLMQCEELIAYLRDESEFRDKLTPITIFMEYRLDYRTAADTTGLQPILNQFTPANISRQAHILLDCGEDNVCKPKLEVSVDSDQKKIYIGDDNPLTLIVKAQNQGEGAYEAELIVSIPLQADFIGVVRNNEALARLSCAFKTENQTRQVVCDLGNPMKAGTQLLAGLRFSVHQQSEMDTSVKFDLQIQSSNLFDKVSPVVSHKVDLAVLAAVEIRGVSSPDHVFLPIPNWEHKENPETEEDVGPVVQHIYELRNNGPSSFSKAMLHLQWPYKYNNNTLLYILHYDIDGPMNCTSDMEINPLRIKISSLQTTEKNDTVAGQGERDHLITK
αvβ3 integrin, sequence (P06756 891-1048 partner limits assumed): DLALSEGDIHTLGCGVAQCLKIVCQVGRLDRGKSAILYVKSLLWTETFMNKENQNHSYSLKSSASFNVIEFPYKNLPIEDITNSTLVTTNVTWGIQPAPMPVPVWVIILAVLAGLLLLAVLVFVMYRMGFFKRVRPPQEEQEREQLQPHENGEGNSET
αvβ3 integrin, sequence (P05106 27-788): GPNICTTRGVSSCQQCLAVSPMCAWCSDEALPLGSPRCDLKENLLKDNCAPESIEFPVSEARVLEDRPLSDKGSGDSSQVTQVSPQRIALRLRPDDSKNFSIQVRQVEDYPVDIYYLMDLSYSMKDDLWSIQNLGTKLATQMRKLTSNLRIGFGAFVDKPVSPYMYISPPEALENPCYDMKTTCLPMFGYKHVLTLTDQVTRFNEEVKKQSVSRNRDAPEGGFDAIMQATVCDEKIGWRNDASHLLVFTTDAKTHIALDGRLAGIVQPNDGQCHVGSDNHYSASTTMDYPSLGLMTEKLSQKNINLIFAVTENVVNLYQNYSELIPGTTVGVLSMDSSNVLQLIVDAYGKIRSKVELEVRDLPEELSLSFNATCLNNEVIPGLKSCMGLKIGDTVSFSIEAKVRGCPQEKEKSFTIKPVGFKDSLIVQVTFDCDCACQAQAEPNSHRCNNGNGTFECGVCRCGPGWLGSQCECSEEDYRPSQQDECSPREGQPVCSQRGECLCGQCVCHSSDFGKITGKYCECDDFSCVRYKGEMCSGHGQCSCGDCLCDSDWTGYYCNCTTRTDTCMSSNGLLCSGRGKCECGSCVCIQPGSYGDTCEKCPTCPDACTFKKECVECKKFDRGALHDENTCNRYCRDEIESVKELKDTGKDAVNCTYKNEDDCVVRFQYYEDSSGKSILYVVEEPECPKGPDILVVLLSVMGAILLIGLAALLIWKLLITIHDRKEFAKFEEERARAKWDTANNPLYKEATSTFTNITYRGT
T1 sequence (P08648 42-894 limits assumed): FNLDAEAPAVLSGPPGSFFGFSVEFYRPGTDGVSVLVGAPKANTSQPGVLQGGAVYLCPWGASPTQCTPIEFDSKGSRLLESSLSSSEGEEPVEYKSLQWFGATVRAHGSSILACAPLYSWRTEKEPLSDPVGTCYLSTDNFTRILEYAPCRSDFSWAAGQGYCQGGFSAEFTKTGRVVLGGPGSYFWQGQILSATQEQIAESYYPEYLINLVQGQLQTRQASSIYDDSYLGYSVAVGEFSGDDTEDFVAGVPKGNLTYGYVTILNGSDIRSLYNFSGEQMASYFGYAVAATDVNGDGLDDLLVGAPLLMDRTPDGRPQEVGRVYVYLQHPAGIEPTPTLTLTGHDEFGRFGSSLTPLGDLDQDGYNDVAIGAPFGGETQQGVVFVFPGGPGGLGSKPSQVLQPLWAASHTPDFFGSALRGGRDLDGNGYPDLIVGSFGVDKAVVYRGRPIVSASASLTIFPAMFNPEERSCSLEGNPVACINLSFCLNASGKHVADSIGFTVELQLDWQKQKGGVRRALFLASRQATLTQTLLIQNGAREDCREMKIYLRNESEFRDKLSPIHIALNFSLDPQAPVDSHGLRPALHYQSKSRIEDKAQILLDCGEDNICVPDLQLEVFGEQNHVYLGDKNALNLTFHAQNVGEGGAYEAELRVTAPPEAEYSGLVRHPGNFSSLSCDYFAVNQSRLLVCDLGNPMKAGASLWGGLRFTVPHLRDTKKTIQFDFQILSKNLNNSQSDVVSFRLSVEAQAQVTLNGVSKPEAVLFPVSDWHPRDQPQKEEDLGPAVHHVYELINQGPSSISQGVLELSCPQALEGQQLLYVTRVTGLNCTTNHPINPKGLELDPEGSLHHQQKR
T1 sequence (P08648 895-1049 partner limits assumed): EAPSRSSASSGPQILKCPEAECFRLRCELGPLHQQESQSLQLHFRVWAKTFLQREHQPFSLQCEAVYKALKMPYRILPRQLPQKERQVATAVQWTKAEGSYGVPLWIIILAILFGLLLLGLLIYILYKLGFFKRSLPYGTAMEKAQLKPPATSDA
T1 sequence (P05556 21-798): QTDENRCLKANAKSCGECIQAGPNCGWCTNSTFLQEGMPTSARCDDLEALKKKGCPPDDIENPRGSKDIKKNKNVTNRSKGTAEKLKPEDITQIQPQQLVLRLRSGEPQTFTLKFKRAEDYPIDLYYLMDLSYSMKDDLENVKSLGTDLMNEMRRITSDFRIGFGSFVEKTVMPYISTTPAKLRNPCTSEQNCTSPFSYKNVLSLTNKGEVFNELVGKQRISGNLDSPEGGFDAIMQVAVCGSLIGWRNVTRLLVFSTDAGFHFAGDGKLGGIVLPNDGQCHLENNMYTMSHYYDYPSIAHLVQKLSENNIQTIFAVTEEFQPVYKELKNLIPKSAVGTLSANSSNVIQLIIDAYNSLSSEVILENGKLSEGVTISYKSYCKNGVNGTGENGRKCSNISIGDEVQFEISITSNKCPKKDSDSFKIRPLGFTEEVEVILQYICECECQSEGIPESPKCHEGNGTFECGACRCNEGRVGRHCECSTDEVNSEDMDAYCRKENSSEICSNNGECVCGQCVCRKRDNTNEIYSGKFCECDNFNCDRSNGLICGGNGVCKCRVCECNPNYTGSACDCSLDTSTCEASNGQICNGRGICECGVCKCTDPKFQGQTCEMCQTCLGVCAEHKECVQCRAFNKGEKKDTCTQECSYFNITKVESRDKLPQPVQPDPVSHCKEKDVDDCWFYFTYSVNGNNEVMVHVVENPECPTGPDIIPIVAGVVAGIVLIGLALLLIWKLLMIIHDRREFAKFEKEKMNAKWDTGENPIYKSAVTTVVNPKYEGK

Substance	precipitation of the peptide [1]	binding of peptide-displaying phage to the αvβ3 integrin (αvβ3 integrin)	peptide coating concentration required to produce significant attachment (αvβ1 integrin) [mg/mL]	binding of peptide-displaying phage to the α5β1 integrin (α5β1 integrin)
A*CPSRLDSPC*G (ACPSRLDSPCG; disulfide 2-10 (inferred))	tendency of the peptide precipitate at neutral pH	bound to αvβ3	–	–
GACRRETAWACGA	–	–	1	selectively bind
